Test results from patent US11655308B2, “HM-3 fusion protein and application thereof” (TASLY BIOPHARMACEUTICALS CO., LTD., priority 2017, dated 2023).
Where two headings read alike, the source gives them in different places. Marks after values point to notes of the source that are not given here.

Tests used:
Rat chondrocyte = test: Protective effect of TSL-4 on chondrocytes injured by hydrogen peroxide (MTT); assay type: cell-based
Protocol: The culture medium was replaced to different experimental groups in the following day with a dose volume of 100 μl and incubated for 24 or 48 hours respectively.
At the end of incubation according to the experimental plan, 10 μL of 5 mg/ml MTT was added to each experimental group based upon 1/10 of the cell culture volume, so that the cells were incubated with MTT in the incubator for 4 hours. Afterwards, supernatant was carefully discarded, and 200 μL of dimethyl sulfoxide (DMSO) was added for mixing well, then the absorbance was measured on a microplate reader at a test wavelength of 570 nm. Calculating formula of relative cell activity ratio (%): a mean value of the absorbance (per well) in the experimental group/the absorbance in the control group multiplies by 100%. […] The difference between each group was analyzed by Prism 7.0, and tested by one-way ANOVA. *P<0.05 means statistical difference, **P<0.01 means significant statistical difference, and […] means extremely significant statistical difference.
In order to detect the protective effect of TSL-4 on chondrocytes injured by hydrogen peroxide, the experiment was divided into three groups control group (no hydrogen peroxide and TSL-4, only adding fresh culture medium), hydrogen peroxide modeling group (only adding hydrogen peroxide cell culture medium containing different concentrations) and TSL-4 administration group (containing hydrogen peroxide). In order to detect the protective effect of TSL-4 on chondrocytes injured by hydrogen peroxide, TSL-4 and hydrogen peroxide were cultured with chondrocytes for 24 hours. The dosage of hydrogen peroxide was selected within 0.1, 0.25, 0.5 and 1 mM; the TSL-4 dosage was 0.23, 1.17, 5.86, 29.3
In the presence of different doses of H2O2, TSL-4 at proper concentration and chondrocytes were cultured for 24 h, and the relative cell viability in each administration group (relative absorbance percentage to the control group) was expressed as the following X±SD.
In the presence of the molding agent H2O2 at 0.25, 0.35, 0.5 mM, 1.17 and 5.86 μM TSL-4 were cultured with chondrocytes for 24 h, and the relative cell viability in each administration group (relative absorbance percentage to the control group) was expressed as the followings X±SD.

[1] = system: transgenic blood vessel fluorescent zebrafish; test: In vivo anti-angiogenesis in zebrafish (SIVs area); set-up: area of SIVs: unit not given here; conditions: for inhibition rate of angiogenesis / area of SIVs: 24 h; for area of SIVs: normal control group 53193
Protocol: Experimental method: transgenic blood vessel fluorescent zebrafish was randomly selected and put into a six-well plate with 30 fish per well, and intravenously injected HM-3 polypeptide, TSL-1 fusion protein, TSL-2 fusion protein, TSL-3 fusion protein and TSL-4 fusion protein respectively in accordance with the dosage of 20 ng/tail and 66 ng/tail; the dosage was […] in Avastin positive control and the injection volume was 20 nL/tail; the zebrafish injected 20 nL/tail of buffer solution served as a solvent control group, and the zebrafish without any treatment served as a normal control group. 10 pieces of zebrafish were randomly selected from each group after processed for 24 h to observe the intestinal vessels of the transgenic zebrafish by a fluorescence microscope, as well as to take and maintain images. Image analysis was performed by Nikon MS-Elements D 3.10 to calculate the area (S) of SIVs (subintestinal vessel, SIV). The calculation formula of angiogenesis inhibition rate was as follows: Angiogenesis inhibition rate (%)=(1−S(Test sample group)/S(Normal control group))×100%
Statistical analysis was performed by variance analysis and Dunnett's T-test and the results were expressed as Mean±SD, where p<0.05 indicates a significant difference.

[2] = rat, in vivo, sc
Protocol: (1) 18 SD rats (half male and half female) were purchased and fed for one week.
(2) Rats were divided into 3 groups, half male and half female, and weight of rats were recorded respectively.
The blood was centrifuged at 12000 rpm/min to take 200 μL of supernatant, then the supernatant was diluted with PBS solution according to a ratio of 1:3, and finally placed in an EP tube and stored in a −80° C. refrigerator.
(4) Biological samples were measured by double-antibody sandwich ELISA.
(1) Coating, HM-3 monoclonal antibody was diluted with a coating buffer (CBS) in certain concentration, added to an ELISA plate and coated overnight.
(2) Plate washing, the coating buffer was discarded, and the plate was washed by PBST for 3 times, and then dried by patting.
(3) Sealing, a blocking buffer was added for sealing at 37.5° C., the plate washing process was repeated and the plate was dried by patting.
(4) Addition of samples to be measured, the samples to be measured were added to the ELISA plate with multiple wells, and then incubated at 37.5° C.; the plate washing process was repeated and the plate was dried by patting.
(5) Addition of a secondary antibody, the secondary antibody diluted proportionally was added for incubation at 37.5° C. The plate washing process was repeated and the plate was dried by patting.
(6) Addition of the enzyme-labeled secondary antibody for reaction, the HRP-labeled secondary antibody which was diluted by 5% skim milk powder solution according to certain proportion was added for incubation at 37.5° C. The plate washing process was repeated and the plate was dried by patting.
(7) Addition of a substrate, a TMB substrate in certain volume L was added for reaction in the dark.
(8) Termination of the reaction, a certain amount of stop buffer was added to terminate the reaction.
(9) Detection, read OD450 nm with a microplate reader.

human macrophage U937 = test: TNF-α production by LPS-induced human macrophage U937 (ELISA); assay type: cell-based
Protocol: Experimental method: Human macrophage U937 was cultured in RPMI-1640 medium containing 10% fetal bovine serum and double antibodies in a constant temperature incubator at 37° C. under the condition of 5% CO2, and the medium was replaced every 2 days. U937 cells in the logarithmic phase were collected, resuspended and adjusted to the concentration of 5×10^5/mL. 100 μL of cells was added to each well of a 96-well plate overnight and induced with LPS (1 μg/mL) in the following day, where n=3. At the same time, the cells were treated with agents, and respectively divided into a positive control group adalimumab, an HM-3 polypeptide group, an mPEG-SC-HM-3 polypeptide group, an HM-3 fusion protein (TSL-1, TSL-2, TSL-3, TSL-4) group, and the specific dosing scheme was shown in Table 5.
48 h after the agents worked, culture medium was collected and centrifuged, and supernatant was taken to measure the content of TNF-α therein by ELISA. Test results were expressed as mean±SD, and statistical T test was performed. *P<0.05 indicates significant difference, **P<0.01 indicates extremely significant difference. Based upon the results, the efficacy of the HM-3 fusion protein against rheumatoid arthritis was screened.

Substance: mIgG4-Fc-(GGGGS)3-HM-3 [TSL-4]
- relative cell viability (relative absorbance percentage to the control group) (Rat chondrocyte; 0.23 μM TSL-4, 0.1 mM H2O2, 24 h, 0 μM 106.87 ± 9.52): 84.23 ± 20.42***
- relative cell viability (relative absorbance percentage to the control group) (Rat chondrocyte; 0.23 μM TSL-4, 0.25 mM H2O2, 24 h, 0 μM 70.96 ± 11.61): 71.42 ± 6.74
- relative cell viability (relative absorbance percentage to the control group) (Rat chondrocyte; 0.23 μM TSL-4, 0.5 mM H2O2, 24 h, 0 μM 1.68 ± 0.82): 3.17 ± 1.45
- relative cell viability (relative absorbance percentage to the control group) (Rat chondrocyte; 0.23 μM TSL-4, 1 mM H2O2, 24 h, 0 μM 3.57 ± 0.60): 0.89 ± 0.32
- relative cell viability (relative absorbance percentage to the control group) (Rat chondrocyte; 1.17 μM TSL-4, 0.1 mM H2O2, 24 h, 0 μM 106.87 ± 9.52): 100.01 ± 5.02
- relative cell viability (relative absorbance percentage to the control group) (Rat chondrocyte; 1.17 μM TSL-4, 0.25 mM H2O2, 24 h, 0 μM 70.96 ± 11.61): 85.11 ± 8.08*
- relative cell viability (relative absorbance percentage to the control group) (Rat chondrocyte; 1.17 μM TSL-4, 0.5 mM H2O2, 24 h, 0 μM 1.68 ± 0.82): 16.56 ± 5.91*
- relative cell viability (relative absorbance percentage to the control group) (Rat chondrocyte; 1.17 μM TSL-4, 1 mM H2O2, 24 h, 0 μM 3.57 ± 0.60): 1.14 ± 1.07
- relative cell viability (relative absorbance percentage to the control group) (Rat chondrocyte; 5.86 μM TSL-4, 0.1 mM H2O2, 24 h, 0 μM 106.87 ± 9.52): 102.36 ± 9.75
- relative cell viability (relative absorbance percentage to the control group) (Rat chondrocyte; 5.86 μM TSL-4, 0.25 mM H2O2, 24 h, 0 μM 70.96 ± 11.61): 86.35 ± 4.20*
- relative cell viability (relative absorbance percentage to the control group) (Rat chondrocyte; 5.86 μM TSL-4, 0.5 mM H2O2, 24 h, 0 μM 1.68 ± 0.82): 10.27 ± 7.08
- relative cell viability (relative absorbance percentage to the control group) (Rat chondrocyte; 5.86 μM TSL-4, 1 mM H2O2, 24 h, 0 μM 3.57 ± 0.60): 1.21 ± 0.70
- relative cell viability (relative absorbance percentage to the control group) (Rat chondrocyte; 29.3 μM TSL-4, 0.1 mM H2O2, 24 h, 0 μM 106.87 ± 9.52): 76.46 ± 5.45****
- relative cell viability (relative absorbance percentage to the control group) (Rat chondrocyte; 29.3 μM TSL-4, 0.25 mM H2O2, 24 h, 0 μM 70.96 ± 11.61): 59.72 ± 3.49
- relative cell viability (relative absorbance percentage to the control group) (Rat chondrocyte; 29.3 μM TSL-4, 0.5 mM H2O2, 24 h, 0 μM 1.68 ± 0.82): 3.87 ± 6.00
- relative cell viability (relative absorbance percentage to the control group) (Rat chondrocyte; 29.3 μM TSL-4, 1 mM H2O2, 24 h, 0 μM 3.57 ± 0.60): 0.43 ± 0.53
- viability of chondrocytes stimulated by H2O2 (Rat chondrocyte; 0.23/29.3 μM TSL-4, 0.1 mM H2O2): relatively significantly inhibiting effect
- relative cell viability (relative absorbance percentage to the control group) (Rat chondrocyte; repeated trial: 1.17 μM TSL-4, 0.25 mM H2O2, 24 h, 0 μM 78.77 ± 7.45): 85.31 ± 7.36
- relative cell viability (relative absorbance percentage to the control group) (Rat chondrocyte; repeated trial: 1.17 μM TSL-4, 0.35 mM H2O2, 24 h, 0 μM 63.96 ± 6.46): 68.54 ± 3.62
- relative cell viability (relative absorbance percentage to the control group) (Rat chondrocyte; repeated trial: 1.17 μM TSL-4, 0.5 mM H2O2, 24 h, 0 μM 37.10 ± 6.53): 41.46 ± 2.08
- relative cell viability (relative absorbance percentage to the control group) (Rat chondrocyte; repeated trial: 5.86 μM TSL-4, 0.25 mM H2O2, 24 h, 0 μM 78.77 ± 7.45): 87.36 ± 7.85
- viability of chondrocytes injured by H2O2 (Rat chondrocyte; repeated trial: 5.86 μM TSL-4, 0.35 mM H2O2): significantly improve the viability of chondrocytes
- relative cell viability (relative absorbance percentage to the control group) (Rat chondrocyte; repeated trial: 5.86 μM TSL-4, 0.35 mM H2O2, 24 h, 0 μM 63.96 ± 6.46): 73.29 ± 4.39
- relative cell viability (relative absorbance percentage to the control group) (Rat chondrocyte; repeated trial: 5.86 μM TSL-4, 0.5 mM H2O2, 24 h, 0 μM 37.10 ± 6.53): 45.07 ± 6.36
- inhibiting effect on angiogenesis ([1]; 20 ng/tail): significant inhibitory effect
- inhibition rate of angiogenesis ([1]; 20 ng/tail iv): 36%
- area of SIVs ([1]; 20 ng/tail iv): 33869
- inhibition rate of angiogenesis ([1]; 66 ng/tail iv): 47%
- area of SIVs ([1]; 66 ng/tail iv): 28297
- Vd/F ([2]; 4.17 mg/kg): 4.200 L/kg
- Vd/F ([2]; 12.5 mg/kg): 3.177 L/kg
- Vd/F ([2]; 37.5 mg/kg): 4.967 L/kg
- inhibitory effect on TNF-α compared with HM-3 and mPEG-SC-HM-3 (human macrophage U937): much better than that of polypeptide HM-3 and mPEG-SC-HM-3
- TNF-α content in cell supernatant (human macrophage U937; 9 μM, LPS 1 μg/mL, 48 h, negative group 77.6±19.6): 22.2 ± 8.9 pg/mL
